Biological target: T1, 2x-p19-TAT (Carnation Italian Ringspot Virus, UniProt Q66104 1-172)
T1 sequence: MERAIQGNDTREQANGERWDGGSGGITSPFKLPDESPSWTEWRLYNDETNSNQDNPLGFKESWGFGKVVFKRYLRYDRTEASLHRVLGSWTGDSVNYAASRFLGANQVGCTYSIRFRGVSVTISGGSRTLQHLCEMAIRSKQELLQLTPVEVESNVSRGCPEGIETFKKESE
Test: EMSA

B1: Cy3-CSK siRNA (dsRNA)
RNA 1: CUACCGCAUCAUGUACCAUTT
RNA 2: AUGGUACAUGAUGCGGUAGTT
modifications: 3' dTdT on both strands (DNA residues written TT)
- Kd: 0.44 ± 0.16 nM

Source: publication PMC5014518
